Measurements reported in the supplement of paper PMC5998384.

Experiments:
HeLa Kyoto [1] = assay: solubility change mitosis vs G1/S (difference of NP-40 vs SDS log2 ratios) (log2 ratio difference); higher = more soluble in mitosis
HeLa Kyoto [2] = assay: melting temperature (median over replicates), in situ; higher = more thermally stable
HeLa Kyoto [3] = assay: thermal stability score vs G1/S (z-score of summed log2 fold changes over temperatures); higher = more thermally stable than in G1/S
HeLa Kyoto [4] = assay: solubility in G1/S (NP-40 vs SDS abundance) (log2 ratio); higher = more soluble; conditions: cell cycle stage: G1/S
[5] = cell cycle stage: early G1 (4.5 h after nocodazole release)
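Throughout, for melting temperature (median over replicates), in situ: HeLa Kyoto cells synchronized by double thymidine or nocodazole block, proteins quantified by TMT10plex mass spectrometry, three independent biological replicates.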
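Throughout, for solubility change mitosis vs G1/S (difference of NP-40 vs SDS log2 ratios): synchronized HeLa Kyoto cells (double thymidine block for G1/S, nocodazole release for mitosis), protein amounts in NP-40 versus SDS lysates quantified by mass spectrometry, three biological replicates.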
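Throughout, for solubility in G1/S (NP-40 vs SDS abundance): HeLa Kyoto cells arrested at G1/S by double thymidine block, proteins quantified by TMT10plex mass spectrometry in mild NP-40 versus SDS extracts, three biological replicates.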
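Throughout, for thermal stability score vs G1/S (z-score of summed log2 fold changes over temperatures): synchronized HeLa Kyoto cells, proteins quantified by TMT10plex mass spectrometry, three biological replicates, mitosis taken 0.5 h after nocodazole release, G1/S directly after double thymidine block.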

Chain of ANKH (chain, as listed by the source): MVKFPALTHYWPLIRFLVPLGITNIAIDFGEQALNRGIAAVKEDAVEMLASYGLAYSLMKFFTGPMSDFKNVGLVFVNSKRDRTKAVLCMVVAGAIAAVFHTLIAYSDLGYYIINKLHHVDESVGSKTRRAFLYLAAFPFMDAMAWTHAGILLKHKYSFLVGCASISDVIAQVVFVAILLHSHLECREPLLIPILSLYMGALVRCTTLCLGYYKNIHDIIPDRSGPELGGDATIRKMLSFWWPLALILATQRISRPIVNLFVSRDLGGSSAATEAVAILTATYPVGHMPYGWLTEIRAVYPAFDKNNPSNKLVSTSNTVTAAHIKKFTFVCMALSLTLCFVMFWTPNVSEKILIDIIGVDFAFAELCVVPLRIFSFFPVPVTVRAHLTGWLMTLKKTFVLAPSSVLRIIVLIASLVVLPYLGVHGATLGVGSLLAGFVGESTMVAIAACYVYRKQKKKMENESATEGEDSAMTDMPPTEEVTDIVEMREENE
Chain of OXSM (chain, as listed by the source): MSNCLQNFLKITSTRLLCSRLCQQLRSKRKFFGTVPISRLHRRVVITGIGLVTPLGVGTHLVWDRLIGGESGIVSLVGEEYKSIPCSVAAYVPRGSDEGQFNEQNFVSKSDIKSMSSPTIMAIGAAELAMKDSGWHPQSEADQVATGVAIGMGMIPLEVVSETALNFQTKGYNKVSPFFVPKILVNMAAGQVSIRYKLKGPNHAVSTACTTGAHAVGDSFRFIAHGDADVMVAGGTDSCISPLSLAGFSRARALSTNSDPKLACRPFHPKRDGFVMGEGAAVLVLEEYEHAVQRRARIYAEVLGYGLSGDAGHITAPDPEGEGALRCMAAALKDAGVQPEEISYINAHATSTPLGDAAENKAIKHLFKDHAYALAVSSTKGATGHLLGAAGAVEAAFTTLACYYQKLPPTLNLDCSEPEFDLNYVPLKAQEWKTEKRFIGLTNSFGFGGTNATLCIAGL
Chain of TANC1 (chain, as listed by the source): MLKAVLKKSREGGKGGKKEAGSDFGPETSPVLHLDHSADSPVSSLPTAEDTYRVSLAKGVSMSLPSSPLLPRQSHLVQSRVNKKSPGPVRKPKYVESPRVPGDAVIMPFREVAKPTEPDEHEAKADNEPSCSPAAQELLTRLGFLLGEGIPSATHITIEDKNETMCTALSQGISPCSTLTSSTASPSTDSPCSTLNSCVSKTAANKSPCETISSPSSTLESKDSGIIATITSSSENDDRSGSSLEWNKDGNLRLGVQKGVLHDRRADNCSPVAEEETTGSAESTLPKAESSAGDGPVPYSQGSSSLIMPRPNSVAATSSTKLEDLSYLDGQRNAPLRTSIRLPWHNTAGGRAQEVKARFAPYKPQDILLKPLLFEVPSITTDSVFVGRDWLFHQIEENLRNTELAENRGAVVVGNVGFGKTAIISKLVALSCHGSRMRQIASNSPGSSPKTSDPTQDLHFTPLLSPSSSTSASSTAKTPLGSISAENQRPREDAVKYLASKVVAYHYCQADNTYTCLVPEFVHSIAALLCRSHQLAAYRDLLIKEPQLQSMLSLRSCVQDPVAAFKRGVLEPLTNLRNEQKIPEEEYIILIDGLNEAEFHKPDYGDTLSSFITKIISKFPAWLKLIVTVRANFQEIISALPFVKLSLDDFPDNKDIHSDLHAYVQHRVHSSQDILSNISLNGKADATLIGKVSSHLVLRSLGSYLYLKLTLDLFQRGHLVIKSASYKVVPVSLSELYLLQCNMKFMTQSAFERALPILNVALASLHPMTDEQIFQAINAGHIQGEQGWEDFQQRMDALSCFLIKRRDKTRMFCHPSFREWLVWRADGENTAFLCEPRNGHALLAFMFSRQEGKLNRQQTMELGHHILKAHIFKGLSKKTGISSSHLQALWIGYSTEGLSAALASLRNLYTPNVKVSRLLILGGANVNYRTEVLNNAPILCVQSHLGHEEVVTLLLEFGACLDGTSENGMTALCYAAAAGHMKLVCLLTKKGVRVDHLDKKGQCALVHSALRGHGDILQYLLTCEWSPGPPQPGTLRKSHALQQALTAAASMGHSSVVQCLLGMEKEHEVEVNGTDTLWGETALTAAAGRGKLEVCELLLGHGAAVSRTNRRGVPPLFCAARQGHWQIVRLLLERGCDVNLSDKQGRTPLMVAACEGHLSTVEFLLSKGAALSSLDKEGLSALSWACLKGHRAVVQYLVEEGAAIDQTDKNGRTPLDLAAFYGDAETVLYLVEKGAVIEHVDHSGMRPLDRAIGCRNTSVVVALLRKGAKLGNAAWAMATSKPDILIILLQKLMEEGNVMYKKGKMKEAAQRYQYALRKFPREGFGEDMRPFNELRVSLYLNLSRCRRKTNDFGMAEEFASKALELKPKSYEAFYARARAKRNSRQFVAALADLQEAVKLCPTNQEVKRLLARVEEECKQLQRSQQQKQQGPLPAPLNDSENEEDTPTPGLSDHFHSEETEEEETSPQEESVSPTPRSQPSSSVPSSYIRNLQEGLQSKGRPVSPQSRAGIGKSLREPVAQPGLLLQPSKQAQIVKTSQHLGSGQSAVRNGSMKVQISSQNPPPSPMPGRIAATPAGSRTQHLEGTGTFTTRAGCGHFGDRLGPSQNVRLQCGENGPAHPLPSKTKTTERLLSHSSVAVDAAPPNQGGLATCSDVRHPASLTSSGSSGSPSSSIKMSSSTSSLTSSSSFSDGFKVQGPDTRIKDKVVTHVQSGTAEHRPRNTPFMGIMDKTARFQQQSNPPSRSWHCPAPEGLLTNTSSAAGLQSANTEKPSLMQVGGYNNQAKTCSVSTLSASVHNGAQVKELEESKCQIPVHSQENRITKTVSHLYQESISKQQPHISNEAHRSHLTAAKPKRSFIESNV

Row | Substance | solubility change mitosis (log2) (HeLa Kyoto [1]) | melting temperature (HeLa Kyoto [2]; cell cycle stage: G1/S) | melting temperature (HeLa Kyoto [2]; cell cycle stage: mitosis) | thermal stability score (HeLa Kyoto [3]; [5]) | thermal stability score (HeLa Kyoto [3]; cell cycle stage: mitosis) | solubility in G1/S (log2) (HeLa Kyoto [4])
1 | MGKRDRADRDKKKSRKRHYEDEEDDEEDAPGNDPQEAVPSAAGKQVDESGTKVDEYGAKDYRLQMPLKDDHTSRPLWVAPDGHIFLEAFSPVYKYAQDFLVAIAEPVCRPTHVHEYKLTAYSLYAAVSVGLQTSDITEYLRKLSKTGVPDGIMQFIKLCTVSYGKVKLVLKHNRYFVESCHPDVIQHLLQDPVIRECRLRNSEGEATELITETFTSKSAISKTAESSGGPSTSRVTDPQGKSDIPMDLFDFYEQMDKDEEEEEETQTVSFEVKQEMIEELQKRCIHLEYPLLAEYDFRNDSVNPDINIDLKPTAVLRPYQEKSLRKMFGNGRARSGVIVLPCGAGKSLVGVTAACTVRKRCLVLGNSAVSVEQWKAQFKMWSTIDDSQICRFTSDAKDKPIGCSVAISTYSMLGHTTKRSWEAERVMEWLKTQEWGLMILDEVHTIPAKMFRRVLTIVQAHCKLGLTATLVREDDKIVDLNFLIGPKLYEANWMELQNNGYIAKVQCAEVWCPMSPEFYREYVAIKTKKRILLYTMNPNKFRACQFLIKFHERRNDKIIVFADNVFALKEYAIRLNKPYIYGPTSQGERMQILQNFKHNPKINTIFISKVGDTSFDLPEANVLIQISSHGGSRRQEAQRLGRVLRAKKGMVAEEYNAFFYSLVSQDTQEMAYSTKRQRFLVDQGYSFKVITKLAGMEEEDLAFSTKEEQQQLLQKVLAATDLDAEEEVVAGEFGSRSSQASRRFGTMSSMSGADDTVYMEYHSSRSKAPSKHVHPLFKRFRK [ERCC3] | -0.0174 | 47.9 °C | 49.6 °C | 0.89 | 1.14 | -0.561
2 | NFIC | 0.0157 | 56.8 °C | 57.3 °C | -1.32 | 2.11 | 0.109
3 | ANKH | 0.155 | 54.9 °C | 58.2 °C | -1.21 | -1.75 | -0.292
4 | MAGAGPAPGLPGAGGPVVPGPGAGIPGKSGEERLKEMEAEMALFEQEVLGAPVPGIPTAVPAVPTVPTVPTVEAMQVPAAPVIRPIIATNTYQQVQQTLEARAAAAATVVPPMVGGPPFVGPVGFGPGDRSHLDSPEAREAMFLRRAAVAPQRAPILRPAFVPHVLQRADSALSSAAAGPRPMALRPPHQALVGPPLPGPPGPPMMLPPMARAPGPPLGSMAALRPPLEEPAAPRELGLGLGLGLKEKEEAVVAAAAGLEEASAAVAVGAGGAPAGPAVIGPSLPLALAMPLPEPEPLPLPLEVVRGLLPPLRIPELLSLRPRPRPPRPEPPPGLMALEVPEPLGEDKKKGKPEKLKRCIRTAAGSSWEDPSLLEWDADDFRIFCGDLGNEVNDDILARAFSRFPSFLKAKVIRDKRTGKTKGYGFVSFKDPSDYVRAMREMNGKYVGSRPIKLRKSMWKDRNLDVVRKKQKEKKKLGLR [RBM42] | 0.019 | 51.6 °C | 50.1 °C | -2.37 | -2.6 | 0.0912
5 | MAWVLKMDEVIESGLVHDFDASLSGIGQELGAGAYSMSDVLALPIFKQEDSSLPLDGETEHPPFQYVMCAATSPAVKLHDETLTYLNQGQSYEIRMLDNRKMGDMPEINGKLVKSIIRVVFHDRRLQYTEHQQLEGWKWNRPGDRLLDLDIPMSVGIIDTRTNPSQLNAVEFLWDPAKRTSAFIQVHCISTEFTPRKHGGEKGVPFRIQVDTFKQNENGEYTDHLHSASCQIKVFKPKGADRKQKTDREKMEKRTAHEKEKYQPSYDTTILTEMRLEPIIEDAVEHEQKKSSKRTLPADYGDSLAKRGSCSPWPDAPTAYVNNSPSPAPTFTSPQQSTCSVPDSNSSSPNHQGDGASQTSGEQIQPSATIQETQQWLLKNRFSSYTRLFSNFSGADLLKLTKEDLVQICGAADGIRLYNSLKSRSVRPRLTIYVCREQPSSTVLQGQQQAASSASENGSGAPYVYHAIYLEEMIASEVARKLALVFNIPLHQINQVYRQGPTGIHILVSDQMVQNFQDESCFLFSTVKAESSDGIHIILK [UBP1] | 0.0235 | 50.5 °C | 48.3 °C | -0.25 | -0.0933 | 0.06
6 | MEGGLADGEPDRTSLLGDSKDVLGPSTVVANSDESQLLTPGKMSQRQGKEAYPTPTKDLHQPSLSPASPHSQGFERGKEDISQNKDESSLSMSKSKSESKLYNGSEKDSSTSSKLTKKESLKVQKKNYREEKKRATKELLSTITDPSVIVMADWLKIRGTLKSWTKLWCVLKPGVLLIYKTQKNGQWVGTVLLNACEIIERPSKKDGFCFKLFHPLEQSIWAVKGPKGEAVGSITQPLPSSYLIIRATSESDGRCWMDALELALKCSSLLKRTMIREGKEHDLSVSSDSTHVTFYGLLRANNLHSGDNFQLNDSEIERQHFKDQDMYSDKSDKENDQEHDESDNEVMGKSEESDTDTSERQDDSYIEPEPVEPLKETTYTEQSHEELGEAGEASQTETVSEENKSLIWTLLKQVRPGMDLSKVVLPTFILEPRSFLDKLSDYYYHADFLSEAALEENPYFRLKKVVKWYLSGFYKKPKGLKKPYNPILGETFRCLWIHPRTNSKTFYIAEQVSHHPPISAFYVSNRKDGFCLSGSILAKSKFYGNSLSAILEGEARLTFLNRGEDYVMTMPYAHCKGILYGTMTLELGGTVNITCQKTGYSAILEFKLKPFLGSSDCVNQISGKLKLGKEVLATLEGHWDSEVFITDKKTDNSEVFWNPTPDIKQWRLIRHTVKFEEQGDFESEKLWQRVTRAINAKDQTEATQEKYVLEEAQRQAARDRKTKNEEWSCKLFELDPLTGEWHYKFADTRPWDPLNDMIQFEKDGVIQTKVKHRTPMVSVPKMKHKPTRQQKKVAKGYSSPEPDIQDSSGSEAQSVKPSTRRKKGIELGDIQSSIESIKQTQEEIKRNIMALRNHLVSSTPATDYFLQQKDYFIIFLLILLQVIINFMFK [OSBPL8] | -0.172 | 49.8 °C | 50.9 °C | 0.167 | 0.896 | -0.118
7 | MMGRSPGFAMQHIVGVPHVLVRRGLLGRDLFMTRTLCSPGPSQPGEKRPEEVALGLHHRLPALGRALGHSIQQRATSTAKTWWDRYEEFVGLNEVREAQGKVTEAEKVFMVARGLVREAREDLEVHQAKLKEVRDRLDRVSREDSQYLELATLEHRMLQEEKRLRTAYLRAEDSEREKFSLFSAAVRESHEKERTRAERTKNWSLIGSVLGALIGVAGSTYVNRVRLQELKALLLEAQKGPVSLQEAIREQASSYSRQQRDLHNLMVDLRGLVHAAGPGQDSGSQAGSPPTRDRDVDVLSAALKEQLSHSRQVHSCLEGLREQLDGLEKTCSQMAGVVQLVKSAAHPGLVEPADGAMPSFLLEQGSMILALSDTEQRLEAQVNRNTIYSTLVTCVTFVATLPVLYMLFKAS [CCDC51] | -0.0792 | 53.5 °C | 52.7 °C | 0.333 | 0.178 | 0.273
8 | MFWKFDLHTSSHLDTLLEREDLSLPELLDEEDVLQECKVVNRKLLDFLLQPPHLQAMVAWVTQEPPDSGEERLRYKYPSVACEILTSDVPQINDALGADESLLNRLYGFLQSTGSLNPLLASFFSKVMGILINRKTDQLVSFLRKKDDFVDLLLQHIGTSAIMDLLLRLLTCVERPQLRQDVVNWLNEEKIVQRLIEQIHPSKDENQHSNASQSLCDIIRLSREQMIQVQDSPEPDQLLATLEKQETIEQLLSNMFEGEQSQSVIVSGIQVLLTLLEPRRPRSESVTVNSFFSSVDGQLELLAQGALESTVSSVGALHALRPRLSCFHQLLLEPPKLEPLQMTWGMLAPPLGNTRLHVVKLLASALSANDAALTHELLALDVPNTMLDLFFHYVFNNFLHAQVEGCVSTMLSLGPPPDSSPETPIQNPVVKHLLQQCRLVERILTSWEENDRVQCAGGPRKGYMGHLTRVAGALVQNTEKGPNAEQLRQLLKELPSEQQEQWEAFVSGPLAETNKKNMVDLVNTHHLHSSSDDEDDRLKEFNFPEEAVLQQAFMDFQMQRMTSAFIDHFGFNDEEFGEQEESVNAPFDKTANITFSLNADDENPNANLLEICYKDRIQQFDDDEEEEDEEEAQGSGESDGEDGAWQGSQLARGARLGQPPGVRSGGSTDSEDEEEEDEEEEEDEEGIGCAARGGATPLSYPSPGPQPPGPSWTATFDPVPTDAPTSPRVSGEEELHTGPPAPQGPLSVPQGLPTQSLASPPARDALQLRSQDPTPPSAPQEATEGSKVTEPSAPCQALVSIGDLQATFHGIRSAPSSSDSATRDPSTSVPASGAHQPPQTTEGEKSPEPLGLPQSQSAQALTPPPIPNGSAPEGPASPGSQ [PPP6R1] | -0.0433 | 53.1 °C | 50.6 °C | -1.2 | -0.743 | 0.169
9 | MSKLKSSESVRVVVRCRPMNGKEKAASYDKVVDVDVKLGQVSVKNPKGTAHEMPKTFTFDAVYDWNAKQFELYDETFRPLVDSVLQGFNGTIFAYGQTGTGKTYTMEGIRGDPEKRGVIPNSFDHIFTHISRSQNQQYLVRASYLEIYQEEIRDLLSKDQTKRLELKERPDTGVYVKDLSSFVTKSVKEIEHVMNVGNQNRSVGATNMNEHSSRSHAIFVITIECSEVGLDGENHIRVGKLNLVDLAGSERQAKTGAQGERLKEATKINLSLSALGNVISALVDGKSTHIPYRDSKLTRLLQDSLGGNAKTVMVANVGPASYNVEETLTTLRYANRAKNIKNKPRVNEDPKDALLREFQEEIARLKAQLEKRSIGRRKRREKRREGGGSGGGGEEEEEEGEEGEEEGDDKDDYWREQQEKLEIEKRAIVEDHSLVAEEKMRLLKEKEKKMEDLRREKDAAEMLGAKIKAMESKLLVGGKNIVDHTNEQQKILEQKRQEIAEQKRREREIQQQMESRDEETLELKETYSSLQQEVDIKTKKLKKLFSKLQAVKAEIHDLQEEHIKERQELEQTQNELTRELKLKHLIIENFIPLEEKSKIMNRAFFDEEEDHWKLHPITRLENQQMMKRPVSAVGYKRPLSQHARMSMMIRPEARYRAENIVLLELDMPSRTTRDYEGPAIAPKVQAALDAALQDEDEIQVDASSFESTANKKSKARPKSGRKSGSSSSSSGTPASQLYPQSRGLVPK [KIF3B] | -0.0759 | 50.3 °C | 50.3 °C | 0.792 | 0.328 | 0.0133
10 | OXSM | -0.0154 | 58.8 °C | 61.2 °C | 0.339 | -0.889 | -0.149
11 | MLGAWAVEGTAVALLRLLLLLLPPAIRGPGLGVAGVAGAAGAGLPESVIWAVNAGGEAHVDVHGIHFRKDPLEGRVGRASDYGMKLPILRSNPEDQILYQTERYNEETFGYEVPIKEEGDYVLVLKFAEVYFAQSQQKVFDVRLNGHVVVKDLDIFDRVGHSTAHDEIIPMSIRKGKLSVQGEVSTFTGKLYIEFVKGYYDNPKVCALYIMAGTVDDVPKLQPHPGLEKKEEEEEEEEYDEGSNLKKQTNKNRVQSGPRTPNPYASDNSSLMFPILVAFGVFIPTLFCLCRL [MLEC] | -0.0845 | 53.7 °C | 53.6 °C | 1.83 | 2.38 | -0.0175
12 | TANC1 | -0.166 | 50.1 °C | 50.7 °C | -0.0485 | 0.875 | -0.0445
